For test [1], the target named is human FcγRIIb (human) (UniProt P31994). In words: flow cytometry, background staining on EBV-transformed B cells of 2B.1/2B.1 donors. (In general: A flow cytometer gives signals particle by particle.)
For test [2] the target is unchanged. In words: flow cytometry, background staining on EBV-transformed B cells of 2B.1/2B.4 donors.
For test [3] the target is unchanged. In words: flow cytometry, background staining on EBV-transformed B cells of a 2B.4/2B.4 donor.
Test [4] shares this target. In words: flow cytometry, background staining on peripheral B lymphocytes of 2B.1/2B.1 donors.
Test [5] has the same target. In words: flow cytometry, background staining on peripheral B lymphocytes of 2B.1/2B.4 donors.
The target is the same in test [6]. In words: flow cytometry on FcγRIIb transfectants.
In test [7] the target is human FcγRIIa, H131 allele (human) (UniProt P12318). In words: flow cytometry on FcγRIIa (H131) transfectants.
Test [8] concerns the target human FcγRIIa, R131 allele (human) (UniProt P12318). In words: flow cytometry on FcγRIIa (R131) transfectants.

UniProt P31994, sequence (P31994 43-310): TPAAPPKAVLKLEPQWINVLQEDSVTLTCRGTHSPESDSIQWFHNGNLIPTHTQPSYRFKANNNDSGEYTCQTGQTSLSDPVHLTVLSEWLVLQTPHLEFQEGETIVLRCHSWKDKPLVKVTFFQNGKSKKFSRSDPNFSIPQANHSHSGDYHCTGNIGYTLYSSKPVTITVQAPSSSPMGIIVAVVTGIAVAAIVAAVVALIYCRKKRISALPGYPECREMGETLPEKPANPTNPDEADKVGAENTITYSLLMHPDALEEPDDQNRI

mIgG1 isotype control (antibody): the MFI turned out to be 3.6 MFI in the test with human FcγRIIb (human) [1]; 3.6 MFI with human FcγRIIb (human) [2]; 3.9 MFI in the test with human FcγRIIb (human) [3]; 4.1 MFI with human FcγRIIb (human) [4]; 3.9 MFI with human FcγRIIb (human) [5].
As to mAb AT-10 (antibody), the fold staining against mAb IV.3 in the test with human FcγRIIb (human) [6] was 10 fold. In addition, the fold difference against mAb IV.3 in test [7] and in test [8] was under 2 fold throughout.

Source of the values: US20080248465A1.
